{
  "source": "the nanobody polyreactivity screen of Harvey et al. (2022)",
  "data": [
    {"test": "yeast display, Sf9 membrane polyspecificity reagent, FACS + sequencing; frameworks hold sequencing errors", "summary_of_the_method": "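After 36–48 hours of galactose induction, yeast (Saccharomyces cerevisiae BJ5465) displaying a synthetic nanobody library were stained at 4 °C for 1 hour with 10% biotinylated, detergent-solubilized Sf9 membrane reagent. Streptavidin microbeads enriched the stained cells before FACS sorting into low and high (top ~1%) gates on anti-HA and streptavidin fluorescence. Each clone's polyreactivity label reflects its gate of origin.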", "values": [
      {"sequence": "QVQLVESGGGLVQARGSLRLSSAASGSTFYDYAMGWYRHAPGKERELVAAISGNGDSTYYADSVKGRFTISRDNAKNTVYLQMNSLNPEDTAVYYCAAYLGWGYDYWGQGTQVTVSS", "polyreactivity (PSR sort gate)": "low polyreactivity"},
      {"sequence": "QVQLVESGGGLVQARGSLRLSSAASRSTFNVYAMGWYRQAPGKERELVAGIRDSDGSTNYADSVKGRFTISRDNAKNTVYLQMNSLKPEDTAVYYCAADLYDINWSVWLDYWGQGTQVTVSS", "polyreactivity (PSR sort gate)": "low polyreactivity"},
      {"sequence": "QVQLVESGGGLVQAVCSLRLICAASGLTFGGYSMGWYRQAPAKERELVAAISRSCGSTYYADSVKGRFTISRDNAKNTVFLQMNSLKPEDTAVYYCNAGRDTKYDYWGQGTQVTVSS", "polyreactivity (PSR sort gate)": "low polyreactivity"},
      {"sequence": "QVQLVESGGGLVQAVGSLLLSCAASGITFRYYAMGWYRQAPGKERELVARITTDGSTHYADSVMGRFTISRDNAKNTVYLQMNSLKPEDTAVYYCNVDGYYLFVRGYEYWGLGTQVTVSS", "polyreactivity (PSR sort gate)": "low polyreactivity"},
      {"sequence": "QVQLVESGGGLVQAVGSLRLSCAASGFIFAQNARGGSRPAPGKERELVAAIYGSGVRTYYADSVKGRFTISRDNAKNTVYLQMNSLKPEDTAVYYCAKDTYLQIYQYGYWGQGTQVTVSS", "polyreactivity (PSR sort gate)": "high polyreactivity"},
      {"sequence": "QVQLVESGGGLVQAVGSLRLSCAASGFIFGTYAMGWYRQAPGKERELVAVITRGGTTYYADSVKGRFTISRDNAKNTVYLQMNSLKPEDTAVYYCAADPWALFVGDEYYYWGQGTQVTVSS", "polyreactivity (PSR sort gate)": "low polyreactivity"},
      {"sequence": "QVQLVESGGGLVQAVGSLRLSCAASGFTFSVNAMGWYRQAPGKERELVAAITRSGGRTYYADSVKGRFTISRDNAQNTVYLQMNSLKPEDTAVYYCATPRSRTDGYDYWGQGTQVTVSS", "polyreactivity (PSR sort gate)": "high polyreactivity"},
      {"sequence": "QVQLVESGGGLVQAVGSLRLSCAASGFTYSPNAMGWYRQAPGKERELVATISWNGGRTHYADSVKGRFTISRDNAKNTVYLQMNSLKPEDTAVYDCNVVRATGRYYYWGQGTQVTVSS", "polyreactivity (PSR sort gate)": "high polyreactivity"},
      {"sequence": "QVQLVESGGGLVQAVGSLRLSCAASGLIFKKYAMGWYRQAPGKERELVATITSRGGSTYYADSVKGRFTISRDNAKNTVYLQMNSLKPEDTAVYYCAARFGFYTAYTYNYWGQGTQVTVSS", "polyreactivity (PSR sort gate)": "high polyreactivity"},
      {"sequence": "QVQLVESGGGLVQAVGSLRLSCAASGRIFRYYAMGWYRQATGKESELVAAISDSSGYTYYADSVKGRFTISRDNAKNTVYLQMISLKPEDTAVYYCRDYLGSGYYYWGQGTQVTVSS", "polyreactivity (PSR sort gate)": "high polyreactivity"},
      {"sequence": "QVQLVESGGGLVQAVGSLRLSCAASGRIFYPYAMGWYRQAPGKERELVAVITSGTGTYYADSVKGRFTISRDNAKNTVYLQMNSLKQEDTAVYYCAADRWYYRHRSSSYGYDYWGQGTQVTVSS", "polyreactivity (PSR sort gate)": "high polyreactivity"},
      {"sequence": "QVQLVESGGGLVQAVGSLRLSCAASGRIIVRNAMGWYRQAPGKERELVAAISRSGGSTYYADSVKGRFTLSRDNAKNTVYLQMNSLIPEYTAVYYCAADYPITYTSKFNYWGHGTQVTVSS", "polyreactivity (PSR sort gate)": "high polyreactivity"},
      {"sequence": "QVQLVESGGGLVQAVGSLRLSCAASGRTFRTYTMGWYRQAPGKERELVAAISRGGSTNYADSLKGRFTISRDNAKNTVYLQMNSLKPEDTAVYYCNAKASFWSPYDYWGQGTQVTVSS", "polyreactivity (PSR sort gate)": "high polyreactivity"},
      {"sequence": "QVQLVESGGGLVQAVGSLRLSCAASGRTFYSYAMGWYRQAPGKERELVAAISRTGGSTYYADSVKGRFTISLDNAKNTVYLQMNSLKPEDTAVYYCAAVYRRNEFGYWGQGTQVTVSS", "polyreactivity (PSR sort gate)": "high polyreactivity"},
      {"sequence": "QVQLVESGGGLVQAVGSLRLSCAASGYTFVIYAMGWYRQAPGKERELVAAITTIGGRTYYADSVKGRFTISRDNAKNTVYLQMISLKPEDTAVYYCAADIRSNRLYDGGYWGLGTQVTVSS", "polyreactivity (PSR sort gate)": "low polyreactivity"},
      {"sequence": "QVQLVESGGGLVQAVGSLRLSCADSGRIFYGYDMGWYRQAPGKERELVAAITWRGGTFYADSVKGRFTISRDNEKKTVYLQMNSLKPEDTAVYYCSARVSSYGRYDYWGQGTQVTVSS", "polyreactivity (PSR sort gate)": "high polyreactivity"},
      {"sequence": "QVQLVESGGGLVQAVGSLRLSCDASGLTFNSNAMGWYIQAHGKDRELVATISRGGTTNYADSVKGRFTISRDNAKNTVYLQMNSLKPEDTAVYYCNALRGSRYDYWGQGTQVTVSS", "polyreactivity (PSR sort gate)": "high polyreactivity"},
      {"sequence": "QVQLVESGGGLVQAVGSLRLSGAASGSIFQYTAMGRYRQAPGKERELVAAISSRGGIRYYADSVKGRFTISRDNAKYTVFLQMNSLKPEDTAVYYCAAEAYYSDVRWSEYWGQGTQVTVSS", "polyreactivity (PSR sort gate)": "high polyreactivity"},
      {"sequence": "QVQLVESGGGLVQAVGSLRLSSAASGFIFWYYAMGWYRQAPGKERELVAAISSGGGTNYADSVKGRFTISRDNAKNTVYLQMNSLKPEDYAVYYCAAYGPLTGYDYWGQGTQVTVSS", "polyreactivity (PSR sort gate)": "low polyreactivity"},
      {"sequence": "QVQLVESGGGLVQAVGSLSLICAASGSTFLKYTMGWYRQAPWKERELVAAISKSGGSTYYADSVKGRFTISRDNAKNTVYLQMNSLKPEDTAVYYCAKGRYWVSSYGYGYWVQGTQVTVSS", "polyreactivity (PSR sort gate)": "high polyreactivity"},
      {"sequence": "QVQLVESGGGLVQEGCSLRLTCAASGSIFYYYAMGWYRQAPRKERELVATITWNGAGTFYADSVKGRFTISRDNAKNTVYLQMNSLKPEDTAVYYCAASWYGESGYDYWGQGTQVTVSS", "polyreactivity (PSR sort gate)": "low polyreactivity"},
      {"sequence": "QVQLVESGGGLVQEGGILPLSCAASGRIFGTYAMGWYRQAPGKERELVAAISSSGTSTYYADSVKGRFTISRDNAKNTVYLPMNSLKPEDTAVYYCAARYPRTAYDYWGQCTQVTVSS", "polyreactivity (PSR sort gate)": "low polyreactivity"},
      {"sequence": "QVQLVESGGGLVQEGGILRLSCAASGLTFYGYAMGWYRQAPGKERELVAAITSGDSTYYADSVKGRFTISRDNAKNTVYLQMNSLKPEDTAVYYCAAVGGYPRYGYWGQGTQVTVSS", "polyreactivity (PSR sort gate)": "high polyreactivity"},
      {"sequence": "QVQLVESGGGLVQEGGSLCLSCAASGIFVYNAMGWYRQAPGKEREFVAAINKSGASTFYADSVKGRFTISRDNAKNTVYLQMNSLKPEDTAVYYCNAGTLYYRYRWGHYYDSWGQGTQVTVSS", "polyreactivity (PSR sort gate)": "low polyreactivity"},
      {"sequence": "QVQLVESGGGLVQEGGSLGLSCAASGFIFVRYAMGWYRQAPGKERELVATITRGGGTYYADSVKARFTISRDNAKNTVYLQMKRLKPVDTAVYYCNKRGYSRYTGFGLDSWGQGTQVTVSS", "polyreactivity (PSR sort gate)": "high polyreactivity"},
      {"sequence": "QVQLVESGGGLVQEGGSLLISCAASGSIVESYAMGWYRQAPGKEREWVAAITIRGASPYYADSVKGRFTISRDNAKNTVYLQMNSLKPEDTAVYYCNARWPGIGPIYDYWGQGTQVTVSS", "polyreactivity (PSR sort gate)": "low polyreactivity"},
      {"sequence": "QVQLVESGGGLVQEGGSLRIICAASGFTFYRYARGWYRQEPGKERELVAAISSHGDRTYYSDSVKGRFTISRDNAKNTVYLQMNSLKPEDTAVYFCNVETLYGYFLHFYLRYYHWGQGTQVTVSS", "polyreactivity (PSR sort gate)": "high polyreactivity"},
      {"sequence": "QVQLVESGGGLVQEGGSLRLICAASGIIFYFYAMGWYRQAPGKERELVAAISSGGGSTYYADSVKGRFTISRDNAKNTVYLQMNSLKPEDTAVYYCAAKIGRNFDWGQGTQVTVSS", "polyreactivity (PSR sort gate)": "high polyreactivity"},
      {"sequence": "QVQLVESGGGLVQEGGSLRLICAASGRTFVYNTMGWYRQAPGKERELVAAITRSGDSTYDADSVKGRFTISRDTAKITVYIHMKSLKPDDTGVYYCNAVSNRYWLKDYWGQGTQVTVSS", "polyreactivity (PSR sort gate)": "high polyreactivity"},
      {"sequence": "QVQLVESGGGLVQEGGSLRLICAASGRTFYKNAMGWYRPAPAKERELVAAISSRGGRTTYADSLKGRYTISRDNAKNTVYLQMNSLKTEDTAVYYCAADWEYDYWGQGTHVTVSS", "polyreactivity (PSR sort gate)": "high polyreactivity"},
      {"sequence": "QVQLVESGGGLVQEGGSLRLICAASGSTFAANTMGWYRQEPGKERELVAAITDRGGSTYYADSVKGRFTISRDNAKNTVYLQMITLKPEDTAVYYSAAERPPYGYLVVGYVSTQYYYWGQGTQVTVSS", "polyreactivity (PSR sort gate)": "low polyreactivity"},
      {"sequence": "QVQLVESGGGLVQEGGSLRLICSASGIILGPYAMGWYRQAPGKESELVSAISWRGGSTYYADSVKGRFTISRDNAKNTVYLQMNSLKPEDTAVYYCATASRTSRTGWAVYYWGQGTQVTVSS", "polyreactivity (PSR sort gate)": "high polyreactivity"},
      {"sequence": "QVQLVESGGGLVQEGGSLRLRWAASGFIFDTYAMGWYRQAPGKERELVAGISDGGSTYYADSVKGRFTISRDNAKNTVYLQLNSLKPEDTAVYYCAAQGEYGFTAYYPGVSWGQGTQVTLSS", "polyreactivity (PSR sort gate)": "low polyreactivity"},
      {"sequence": "QVQLVESGGGLVQEGGSLRLSCAASGFIVNRYAMGWYRQAPGKERELVAAITGSGSRTYYADSVKGRFTISRDNAKNTVYLHMNSLKPEATAVYYCNTDRRPTADFGYWGQGTQVTVAS", "polyreactivity (PSR sort gate)": "high polyreactivity"},
      {"sequence": "QVQLVESGGGLVQEGGSLRLSCAASGFTFARYAMGWYRQSPGKERELVARISSRGGSTNFADSVKGRFTISRDNAKNTVYLQMNSLKPEDTAVYYCAKYYSSKYYYWGQGTQVTVSS", "polyreactivity (PSR sort gate)": "high polyreactivity"},
      {"sequence": "QVQLVESGGGLVQEGGSLRLSCAASGFTLYGYTMGWYRQAPGKERELVAAISGSGGRTYYADSVKGRFTISRDNAKNTVYLQMNSLKPEVTEVYYCAADSRGTWYGYDYWGQGTQVTVSS", "polyreactivity (PSR sort gate)": "high polyreactivity"},
      {"sequence": "QVQLVESGGGLVQEGGSLRLSCAASGGIFFPNAMGWYRQAPGKERELVAAISWSAGSTYYADSVKGRFTISRDNAKNTVYLQMKSLKPEDTAVYYCAAAGSNYTVWFGYYYWGQVTQVTVSS", "polyreactivity (PSR sort gate)": "low polyreactivity"},
      {"sequence": "QVQLVESGGGLVQEGGSLRLSCAASGGIFGEYDMGGYRQAPGKERELVAAINWSGGSTYYADSVKGRFTISRDNAKNSVYLQMNSLKPEDTAVYYSAADRGYPRKVDYWGQVTQVTVSS", "polyreactivity (PSR sort gate)": "low polyreactivity"},
      {"sequence": "QVQLVESGGGLVQEGGSLRLSCAASGGIFSAYAMGWYRQAPGKERELVAAISRTGGSTYYADSVKGRFTISRDNAKITVYLQMTSLKPEDTAVYYCNADYRRYPEFDYWGQGTQVTVSS", "polyreactivity (PSR sort gate)": "high polyreactivity"},
      {"sequence": "QVQLVESGGGLVQEGGSLRLSCAASGGTFAYAMGWYRQAPGKERELVAAITWRGGDTYADSVKGRFTISRDNAKNTVYLQMNSLKPEDTAVYYCAAEFRDVSSNGYDYWGQGTQVTVSS", "polyreactivity (PSR sort gate)": "low polyreactivity"},
      {"sequence": "QVQLVESGGGLVQEGGSLRLSCAASGGTFYAYTMGWYRPAPGTERELVAAISRSGGSTYYADSVKGRITISRDTAKNSVYLQINSLKPEDTAVYYCAAVESGADYYYWGQGTQVTVSS", "polyreactivity (PSR sort gate)": "high polyreactivity"},
      {"sequence": "QVQLVESGGGLVQEGGSLRLSCAASGIIFPVYDMGWYRQAPGKERELVASITDSGGSTSYADSVKGRFTLSRDNAKNTVYLQMNSLKPEDTAVYYCAVTDSDTNYYGYLSYDYWGQGTQVTVSS", "polyreactivity (PSR sort gate)": "low polyreactivity"},
      {"sequence": "QVQLVESGGGLVQEGGSLRLSCAASGIIFRWYAMGWYRQAPGKERELVAAITSDGNTYYADSVKGRFTISRDNAKNTVYLQMNSLKPVDTAVYYCAARLSYYSRMNYWGQGTQVTVSS", "polyreactivity (PSR sort gate)": "high polyreactivity"}
    ]}
  ]
}
